Laboratory results from US7056679.
Blank lines part the entries; values can stand above or below the binder they belong to.

What was measured:
[1] = target: lactate dehydrogenase (LDH); test: phage ELISA; LDH coated
DGI-2 polypeptide [2] = target: DGI-2 polypeptide (UniProt Q15004); test: phage ELISA
[3] = target: lactate dehydrogenase (LDH); test: phage ELISA, 405 nm; LDH coated
DGI-2 polypeptide [4] = target: DGI-2 polypeptide (UniProt Q15004); test: phage ELISA, 405 nm; DGI-2 coated
[5] = target: antibody raised against ETAG; test: phage ELISA, 405 nm; anti-E-tag antibody coated
DGI-2 polypeptide [6] = target: DGI-2 polypeptide (UniProt Q15004); test: phage ELISA, 405 nm; DGI-2 signal over LDH signal

DGI-2 polypeptide, sequence (Q15004 whole entry): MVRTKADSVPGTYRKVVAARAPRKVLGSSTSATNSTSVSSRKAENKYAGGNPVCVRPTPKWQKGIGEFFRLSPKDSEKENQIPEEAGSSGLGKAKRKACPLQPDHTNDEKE

LDH (ratio over background) [1]: 0.9
B1: DGI9-20M-4-A12 (peptide, not shown: large carriers)
peptide: SRLALSSQHGLSLVAGRRRGGAPVPYPDPLEPR

LDH (OD) [3]: 0.8 OD
B5: DGI-2-40F-3-A8 (peptide, not shown: large carriers)
peptide: GQISLAGVAVCSSERMLLAFSSRVFLPGLKVPVTTSQRGSAAAGAPVPYPDPLEPRP

LDH (OD) [3]: 0.9 OD
DGI-2 (OD) (DGI-2 polypeptide [4]): 0.8 OD
ETAG (OD) [5]: 7.7 OD
DGI-2/LDH (OD) (DGI-2 polypeptide [6]): 0.9
B9: DGI-2-20C-3-B3 (peptide, not shown: large carriers)
peptide: DYKGRTMTSPIMSALPVYDRLHGAIGSRGQNMDAAAGAPVPYPDPLEPRP

LDH (OD) [3]: 0.9 OD
DGI-2 (OD) (DGI-2 polypeptide [4]): 1.1 OD
ETAG (OD) [5]: 7.7 OD
DGI-2/LDH (OD) (DGI-2 polypeptide [6]): 1.3
B10: DGI-2-40F-3-C10 (peptide, not shown: large carriers)
peptide: WRARSSGYLFALTPNFGVPHPSSALRRMHGLMARDLRPVAAAGAPVPYPDPLEPRP

LDH (ratio over background) [1]: 0.9
B13: DGI9-20M-4-A627 (peptide, not shown: large carriers)
peptide: WDWSRFGAQLRGAILGRATGGAPVPYPDPLEPR

LDH (ratio over background) [1]: 1.1
B14: DGI9-20M-4-A414 (peptide, not shown: large carriers)
peptide: FLLQDFIMDAGSFVKPIGVGGAPVPYPDPLEPR

LDH (OD) [3]: 0.9 OD
DGI-2 (OD) (DGI-2 polypeptide [4]): 1 OD
ETAG (OD) [5]: 17.7 OD
DGI-2/LDH (OD) (DGI-2 polypeptide [6]): 1
B15: DGI-2-20F-3-C5 (peptide, not shown: large carriers)
peptide: LGNASSLIPFLRSVQESGVRAAAGAPVPYPDPLEPRP

Second part, the binder before the results:

B2: DGI-2-20F-PP-H10 (peptide)
peptide: GRAGTSMTELVAWGFVQRVGAAAGAPVPYPDPLEPRP
DGI-2 (OD) (DGI-2 polypeptide [2]): 1.4 OD
DGI-2/LDH (DGI-2 polypeptide [2]): 1.9

B3: DGI-2-40F-3-D1 (peptide, not shown: large carriers)
peptide: MGQGFHYNRQPYMSHQCYAFTFSTPFLDGDRIPHGVSRGLAAAGAPVPYPDPLEPRP
LDH (OD) [3]: 0.8 OD

B4: DGI-2-20C-3-A12 (peptide, not shown: large carriers)
peptide: GEVDCVYALTHRFLSPQVQYHHRPVAAAGAPVPYPDPLEPRP
LDH (OD) [3]: 0.9 OD
DGI-2 (OD) (DGI-2 polypeptide [4]): 0.9 OD
ETAG (OD) [5]: 8.1 OD
DGI-2/LDH (OD) (DGI-2 polypeptide [6]): 1

B6: DGI-2-40F-3-A1 (SEQ ID NO: 187) (peptide, not shown: large carriers)
peptide: QYFARGSFQFGLSHVLSAAAAFHLYVFCKRLSRGFGIKDDAAAGAPVPYPDPLEPRP
LDH (OD) [3]: 0.7 OD

B7: DGI-2-40F-3-D3 (peptide, not shown: large carriers)
peptide: VQFAMTLSSRLWQHARHPLTDDAPPTVSFGTRRETLAGKAAAAGAPVPYPDPLEPRP
LDH (OD) [3]: 0.9 OD

B8: DGI-2-40F-3-B1 (peptide, not shown: large carriers)
peptide: HGTRLRGVDYVMTWAGWQGYSSRKHVQQAVAGSSPGSDELAAAGAPVPYPDPLEPRP
LDH (OD) [3]: 0.7 OD

B11: DGI9-20M-4-E3 (peptide, not shown: large carriers)
peptide: MAGFRGSGLSGYSEARLPRVGAPVPYPDPLEPR
LDH (ratio over background) [1]: 1

B12: DGI-2-40F-3-A4 (peptide, not shown: large carriers)
peptide: WFTHVVEKFAAAGAPVPYPDPLEPRP
LDH (OD) [3]: 0.8 OD
DGI-2 (OD) (DGI-2 polypeptide [4]): 1.1 OD
ETAG (OD) [5]: 6.7 OD
DGI-2/LDH (OD) (DGI-2 polypeptide [6]): 1.3

B16: DGI-2-40F-4-E1130 (peptide, not shown: large carriers)
peptide: VCRLCRLCRFSMRCGGLSLVLGSAAAFFCEVFVGFCVAAAGAPVPYPDPLEPRP
LDH (OD) [3]: 0.9 OD
DGI-2 (OD) (DGI-2 polypeptide [4]): 2.9 OD
ETAG (OD) [5]: 8.3 OD
DGI-2/LDH (OD) (DGI-2 polypeptide [6]): 3.2
